Binding signal data for two molecules are collected here from paper PMC5811048, “Application of the SSB biosensor to study in vitro transcription”.

Data set [1] concerns the target T1, MDCC-SSB (UniProt P0AGE0 1-178, G27C). Briefly: MDCC fluorescence spectra; excess ssDNA70; 3 mM MgCl2; 50 mM Tris-HCl pH 7.5, 3 mM MgCl2, 100 mM (or 200 mM) NaCl; MDCC titrations 25 C; EMSA room temperature, 20 min. To be noted: protein: recombinant; tags: pET151 vector, His tag (HisTrap purified); MDCC label (at C26, implied); chain copies: 4; single strand. Background: Mobility shift assays separate free from complexed probe on a gel.

The target of data set [2] is T1, MDCC-SSB. Briefly: MDCC fluorescence spectra; excess ssRNA70; 3 mM MgCl2; 50 mM Tris-HCl pH 7.5, 3 mM MgCl2, 100 mM (or 200 mM) NaCl; MDCC titrations 25 C; EMSA room temperature, 20 min. As to conditions: protein: recombinant; tags: pET151 vector, His tag (HisTrap purified); MDCC label (at C26, implied); chain copies: 4; single strand.

T1 sequence (P0AGE0 whole entry G27C): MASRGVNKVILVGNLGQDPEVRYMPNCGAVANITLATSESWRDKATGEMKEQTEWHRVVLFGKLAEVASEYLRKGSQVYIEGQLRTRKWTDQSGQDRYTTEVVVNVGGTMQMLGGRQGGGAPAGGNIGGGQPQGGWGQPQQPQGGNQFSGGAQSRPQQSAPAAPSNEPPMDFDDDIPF

B1: ssDNA70 (dT70) (ssDNA)
DNA: TTTTTTTTTTTTTTTTTTTTTTTTTTTTTTTTTTTTTTTTTTTTTTTTTTTTTTTTTTTTTTTTTTTTTT
As for B1, the binding signal with MDCC-SSB [1] was 1.9 fold fluorescence increase.

B2: ssRNA70 (ssRNA)
RNA: UUAGUUGUUCGUAGUGCUCGUCUGGCUCUGGAUUACCCGCUUAGUUGUUCGUAGUGCUCGUCUGGCUCUG
Turning to B2, the binding signal in the data set with MDCC-SSB [2] was 2.1 fold fluorescence increase.
